The target in the experiment is T1, peptide consisting of amino acid residues 44-72 of the human eIF5A protein (human, UniProt P63241 44-72).
T1 construct: range 44-72; also called human eIF5A (44-72) peptide
Description: ELISA, screening of hybridoma antibodies on the peptide. (In general: In an ELISA, binding on a coated surface is turned into a signal by an enzyme label.)

T1 sequence (P63241 44-72 limits assumed): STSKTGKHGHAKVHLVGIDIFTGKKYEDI

B1: anti-ORAIP antibody (clone YSP5-45-36) (antibody, V domains shown)
VH: EVKLVESGGGLVQPGGSLRLSCATSGFTFTDYYMSWARQPPGKALEWLGFIRNKANGYTTEYSASVKGRFTISRDNSLGILYLQMNTLRPEDSATYYCARNYYGTSFSWFAYWGQGTLVTVSA
VL: MTQTPLSLSVSLGDQASISCRSSQSIVHFNGNTYLEWYLQKPGQSPKLLIYKVSSRFSGVPDRFSGSGSGTDFTLKISRVEAEDLGVYYCFQGSHVPPTFGGGTKLEIK
notes: Mouse monoclonal antibody from a hybridoma (mouse IgG H and L chain primers were used for cloning); also called neutralizing antibody against secretory eIF5A
As to B1, the binding result was “binds”.

The values are drawn from patent publication WO2020241660A1 (dated 2020).
